Measured values reported in the DeepSol protein solubility set.

Test: soluble on expression in E. coli; label from the status in PepcDB or PDB records

MGSDKIHHHHHHMKNMTLDSLDMLSANILVNLYEKHSASSVAMEMNIPAPKVSRCLQHARMIFNDPLFIRKKHGLEPNEFTRQLYPLVKALVQCGEQLQQLESCHDLAASQVMVLYVSDLLIAELPQRLSSAISEAQLPISYELRTGSVDLVEDLAQGLVDLAIVSESSDRALQDDRLIVSPLTELTHLYLLCSHKHPLLQQEISLGNIANYPYLSAFGQLDKQAPDPFQRYCAQQRLSCHLAPVELGREGLAFHQLYRYLSDDKTVSLLPYSRVYEHSEQLPGLHVCCLSGMDTARLYRDQPYPRLYMLSRSGRGGAHLEWMKQEIGQLIKQNVH
soluble on expression in E. coli: not soluble

MGITREELRALVREVVREAVGSLNSSPAQASNQASKPAPPAPPPRATVADQMGLEPTGPRAVEGRNRTETVRLTDDKDLDTFVRKLLRLFESPKTRADLKAGRLRFRLAPGSGAAMANGQAQVTHRIDSGAVTERHIADLAGGTLVLGPRAVLTPLAREKARTLGIVIEKERR
soluble on expression in E. coli: not soluble

MAHHHHHHMPARWHNKQKKGSNGHKRPSTGGNGSAARRDIGFIPPGASAVQNSSAHHADTFMYRFPQNFPVPRRLRHAPTSLVEAVNDFHFAMMNDRPRNEFYYELLKRHVTPETGVLEIGAGSGLLSLMAAQLGAKWVVAVEGSAEMAKLARANICANKMEHKVTVLHMLSTELTLRHLPDRPDVMVSEILGTLLLGESALDYIADVRERLLKPTTKIIPQHGTQYAVPIECDTLRDVCAVSGWKGLELSHMTALQDTVSIVFAKQYGFRMSSVPFRRLSEPIALFSVDFASAVRRDIPMNLKLDVKATSSGTAHAMLYYWKAFDGDLVMSTDPADTLNNFPRDMQWGQALQLLDAANGPFPTPVVFTEGEELKFQCHFSSDRVTVHIHLCPTAEAAASPAKTTPTDNDAIKTEKEACEKVNKGKK
soluble on expression in E. coli: soluble

MSLNSTFSIVDLETTAPFKEGGHIIQIGISFVKNWKIINNFQTMVNPGVKIPEQIVDLTGIKNEDVENAPYFEDLARMIHDQLSGTVFVAHNVRYDFPYLNGEFARIKMRRLRLEYVDTVQLAQIVFPTMNSYKLDELVSKLGINLPRHHRADQDASATAQLFLKIHEHLQEFPQNTLNNLINHSKSLLGNTETIFQLSKGKRTFPGDRYGPFDIARLKKIDKGQLIKWIEAKKQSSLSKPLPATVLRPRQESFANILQSKITGKNNKIFSVFSRPRFGKTNAYLDLAVKIAAKGYKILIIEENYLRRRSTFQKSQSLFPENKDLFQIPITRKDFVSLDKLADAFLTEDNPSRQLAKLRVISWLLKSRTGNLNEFVNGFPEPLFNFFSDQDSPNKFDYFERSISSYTFPSIAITDLDSFLRTKNEFSREYNLFIFDVDKGVSNLIDMLPFFSKKIILFTQAQSYIKNWYSIRDFSDMNSVILSLGSELKEGHHHHHH
soluble on expression in E. coli: not soluble

TNAVNIVMRQPTTPNFSSALNITSANEGGSAMQIRGVEKALGTLKITHENPSVDKEYDENAAALSIDIVKKQKGGKGTAAQGIYINSTSGTAGKMLRIRNKNKDKFYVGPDGDFWSCASSIVDGNLTVKDPTSGKHAATKDYVDEKIAELKKLILKK
soluble on expression in E. coli: soluble

MSRYLITFDMDTNCLKDNYHGNNYTNAYSDIKTILARHGFENIQGSVYLGREGISEAHGTIAIQELTARFDWFYSCISNIKFYRLESDLNAQFIADGVYQAKQAFLQRVEQLRISLTEAGLSDEQINQVLEKQKFELESPNLKLN
soluble on expression in E. coli: not soluble

MSHYQCAVCSSIDANPNSLAVNYQCLADSSVVGEFHVLPRHQGYTDLLHGGIASSLLDGAMTHCLLFRDIQALTAQLDVRYHAPIELDEHVTITAHCEGERRGIYQLVAQLLVNNEVRVTAKGKFIRPKLEHHHHHH
soluble on expression in E. coli: soluble

MGSDKIHHHHHHMSRTLVLFDIDGTLLKVESMNRRVLADALIEVYGTEGSTGSHDFSGKMDGAIIYEVLSNVGLERAEIADKFDKAKETYIALFRERARREDITLLEGVRELLDALSSRSDVLLGLLTGNFEASGRHKLKLPGIDHYFPFGAFADDALDRNELPHIALERARRMTGANYSPSQIVIIGDTEHDIRCARELDARSIAVATGNFTMEELARHKPGTLFKNFAETDEVLASILTPKHS
soluble on expression in E. coli: not soluble

MGSDKIHHHHHHMKKATLKDIAEYFGVSISTVSRALSGKPGVSSELREKILEKAREIGYTPNLMALGLKKGNTRTVGVLIPELSANFFADIVSSIEKSLFHLGYRLILCSTDDDPVKEREHLQLLLDQKVEGILSAPVNVKENKDIYNSIINHFKIPVVFFDRLVEGVDSDFVISDNREGMEILVNYLVKHGHKKIGLIHPLRGSFTGEERLKGFLLFKDSIEIREEWIRDGRSSEQGGYESFLRIMTSQERPTAIVIGNNLMTLGVLKAAKELNIKIPEDISLVSFDDAYWNEIFDPPITCVRQDPQQIGLIAATILLDRMKNRKKPSPRMQVVLKVKFVERSSVRTIKTLKDFS
soluble on expression in E. coli: not soluble

MSLNTVVTALPYFQERAERVASAINAEFIHYHSGLFSELYRTTQRIVAIMAIGIVIRNIAPLIHDKWTDPAVVVISPDMQYAIPVLGGHHGANDLVYLLQERCGLTPVITTATEATGREAVEVLANREHLRIVNTRSTRQANASVLTGSAKVYRLPGPGMVIAGSGVSFLVADGPYSVGIGCRLGTSADEIVHAIHSACETAGISQEDIAIYATGGIKTHESGLLDAVRTLGRNIIFLNHSDLSEVAPPSQSAASRFGLPGVAEPAALAVSVHHHLILEKQIYGNVTIAIAEEGHHHHHH
soluble on expression in E. coli: not soluble

MAHHHHHHMLHGNWKYLRQGGRQWMEKQARDPFVLEARRRGYVARSAFKLLEMDDKFGLFARNHTRVVVDIGCSPGGWLQVARERCGDRCALFGVDLLHVSPTVTGAVCIQGDFTDMAIQQQLLSRMENVHANGLVDVVMSDMCLNRGSGGTDDRQKQMQLNMEALAFATSQLRTGGNFVCKVLGTPTAFEELRGELQRWFVRSSLCKPFSSRRGSDEAFMVCLAKRETPRPRGCNIAEGETRDFGLDDWPGFLRRPRQKR
soluble on expression in E. coli: not soluble

MEQLLERIFDELAFLRANMATKDDVAALKDDIRALESRASHIEQTMATKDDIAAMDKRIGQIEQTMATKDDIASIEQRMATKDDVADIPFIKQAVMETLETINEIPAIKQTLAEALRKLDDVIASQARQELVLQSLAFRSLEQENEIRALKAK
soluble on expression in E. coli: not soluble

SGSSTGDLVTRIQSAHRFDHDALFRFAADNVSGFPTNPSQFKVSQFGHGQSNPTFLIEVGSGSSLKRYVLRKKPPGKLLQSAHAVDREFQVLRALGEHTQVPVPKVFCLCTDPAVIGTAFYIMEFMEGRIFIDPKLPNVAPERRNAIYRATAKALASLHSADVDAIGLEKYGRRGNYCKRQIDRWFKQYLASTSEGKPERNPKMFELVDWLRKNIPAEDSTGATSGLVHGDFRIDNLVFHPSEDRVIGIIDWELSTLGNQMCDVAYSCMHYIVNVQLDKEHVSEGFETTGLPEGMLSMPEFLLEYCSASGKPWPAANWKFYVAFSLFRAASIYTGVYSRWLMGNASAGERARNTGVQANELVESALGYIARENVLPEHPPSVQRDVSPSYESLVDGSGRFIPNRKVLELRQKLIKFMETHIYPMENEFSKLAQSDMRWTVHPQEEKLKEMAKREGLWNLFVPVDSAARARRELAATENKHNLSGKSFDQLFGEGLTNLEYGYLCEIMGRSVWAPQVFNCGAPDTGNMEVILRYGNKEQISEWLIPLLEGRIRSGFAMTEPQVASSDATNIECSIRRQGDSYVINGTKWWTSGAMDPRCRVLILMGKTDFNAPKHKQQSMILVDMRTPGISVKRPLTVFGFDDAPHGHAEISFENVVVPAKNILLGEGRGFEIAQGRLGPGRLHHCMRLIGAAERGMELMAQRALSRKTFGKFIAQHGSFVSDLAKLRVELEGTRLLVLEAADHLDKFGNKKARGILAMAKVAAPNMALKVLDTAIQVHGAAGVSSDTVLAHLWATARTLRIADGPDEVHLGTIGKLELQRASKL
soluble on expression in E. coli: soluble

KGGVWRNTEDEILKAAVMKYGKNQWSRIASLLHRKSAKQCKARWYEWLDPSIKKTEW
soluble on expression in E. coli: soluble

MKMGENVTEYFEFAGVKNTENTLKYAIERAKLGISDIVVASSYGETAKMLFDMLEKENLNVNVVVVTYHQGFSGPDVVAMPENVKKDLEKRGATVFSGTHALSGVERGISKRFGGYGPVEVIAQTLKTLGQGVKVCYEVTVMAADAGLVSTKKEIIAIGGSSRGADSAVVIRPSNMNTFFDIELRELICMPKNKKKHEMAGDPLEHHHHHH
soluble on expression in E. coli: soluble

MSLTKIVLITGANKGIGFETAKQIGKNGWTLLISTRNEERGKNAVHQLQQDGITAEWLQIDLNDIASIHKAARYVEERYPKLDGLINNAGISGDMQKNPLELKSSELEQLAKVNFLGNFEMIKSFTPILSRNHGRILNVTIPATPIGSFNPLGYLASKASLNSMIKSFAMYYKKHEIPVEIFGVLPGGISTDLNQHQSGLLIRTVQEGGESIAKVMMDRHNHQGKLLMRMGLTQLARNFVFRRHDEGHHHHHH
soluble on expression in E. coli: not soluble

MSSEPTSSIESDNLRRSKRKKFKLDFVAAAHGNNQKKSRKDPHGQGDDDDDTFDDDLNHFEPLSVLTEQDVSMEMFEDDEEDTVSRRRTRRSTAHFQDYQEPDRWIENSGPHACHKCPSRYESKSSLANHTKMHLGEKRKFACELCDFSASTLKSLTHHNNIHQNFGVLSQQTSPVIPVASSADSTLNSSINSTGCQINAPPAPKLDEEAPIAVESVVVHHEDVAEFDTTPPPILEREDDGPPVLIREAPVRKSNRPMKPTQKAQKMTKQRERKSKTVESPKGSLPSSSASSVTPPPVRKDVEKPKIFVKTTKKNLKKTMKITKVRQRCPHCPFTTSTVTRLNRHSGGHKLKEGYICPSENCNFMCRKAGFLQKHYILHKGTLPWPPEYVKKGGAKMKRTFPESEEKKIEVTEKVQKMKKMHKRRANTVQVVAKAQLKSYIKVEVDDVIFKKCNIGECEFLTQTLTQLIVHKVKTHDTKTAFPQHRFLCLTCGHRAKSYAALRTHKLIEHTSTHKRFHRTYYLKECVGDKFFVKYNLSKVQEEVKEEPKEADGDESGDESFDSMCPASDVHPETLAAIEMKDVFFCCNMCPYKAPTMNRCQRHYDKHFKNDEFKCQYCSWSSRSKEVIVNHEKLHPTVVVANTNEAPVVKNEIEAKVEVLSKTVSSPVECTEESSLSKSIQLWCQREKLRHPELDEQFTRKMIDGVKGFQCTDCPYTSKYRGDMRSHKKRHDIEQLYRCVQCTYTTNRPVSLKDHLKQHAIVNMSIADIKSRRVVVNQGVKIGMRRGVGKDKIYCCDKCPYVTLALGCLWRHHRNHRDTAKINICSNCSYSSIDQRKMEEHTIIHLGLGLNEAVPFVKRVDQKGRPVSSLTDLNSEKMNERKSTKRKMLDKVEKMEVGEDEEDDEESVDKGTDDGDYKQRPEKKRKQSSEEPASDPELFGSSSQPTRQLSERATRNRINYSLLSKNGSGKPTPSTSSANLEKLAGSSGGASSESPEPDESVEVSHWKIRTFLRSEYGVKESLKCPDCPYKSSEPDVLEKHRYYHMTKTTPRPYACSDCTFNTYTPTALLQHLKLHSEGVYFDPMVKKHMKHRKGDSIPPGVKGYYCKNCSFKTSIHRNFIEHSAYHRQQLINRINITLKRQPPRIEYQRPKLKHQFVAKNAKYCKKCTFKCVSQSNFIEHLDRHGWNQLYKCYSCDYSDNTKSVVDFHQLNHHIVKDQTLHSICQSAKFRLENGVIQIPETEKSKPTPDEFVSKTRGLLKCPSCEYFCHVSSELAFHMSVHHLTEPNARETISYLHMGLVPPKATVTTV
soluble on expression in E. coli: not soluble
